Results taken from PMC2760139.

Key:
[1] = target: mature dengue virus type 2 capsid (C) protein with substitutions L50S-L54S, recombinant (dengue virus type 2) (UniProt P29990); assay: SEC-MALS
[2] = target: mature dengue virus type 2 capsid (C) protein, wild type, recombinant (dengue virus type 2) (UniProt P29990); assay: SEC-MALS
[3] = test system: DENV2 capsid protein C, mature WT (Dengue virus type 2 (cDNA clone GenBank U87411)); assay: filter binding

## mature dengue virus type 2 capsid (C) protein with substitutions L50S-L54S, recombinant (from UniProt P29990 1-100) (natural protein)
[1]
  stoichiometry N: 2

## mature dengue virus type 2 capsid (C) protein, wild type, recombinant (from UniProt P29990) (natural protein)
[2]
  stoichiometry N: 2

## DENV 5'UTR RNA probe (viral 5' terminal region nt 1-160)
[3]
  Kd: 22 nM
